{"source": "the supplement of paper PMC9112550", "about": "“Optimization of the antimicrobial peptide Bac7 by deep mutational scanning” (BMC Biology, 2022);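 note: peptides expressed intracellularly from a pBAD plasmid library in pooled LB shake-flask culture, induced with 0.3% L-arabinose, DNA abundance read by NGS, three biological replicates, DESeq2 with apeglm shrinkage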", "data": [{"test_system": "Escherichia coli TOP10", "experiment": "shrunken log2 fold change of peptide-encoding DNA abundance (4.5 h post-induction vs induction); higher = less antimicrobial activity (less host growth inhibition)", "conditions": "time post-induction: 4.5 h; library: site-saturation at positions 5, 18, 19, 20", "values": [{"sequence": "RRIRWRPPRLPRPRPRPMKLPRP", "shrunken log2 fold change": -0.198}, {"sequence": "RRIRNRPPRLPRPRPRPSSPPRP", "shrunken log2 fold change": 0.0179}, {"sequence": "RRIRPRPPRLPRPRPRPAHQPRP", "shrunken log2 fold change": 0.387}, {"sequence": "RRIRWRPPRLPRPRPRPSVHPRP", "shrunken log2 fold change": -0.136}, {"sequence": "RRIRVRPPRLPRPRPRPKEEPRP", "shrunken log2 fold change": 0.00911}, {"sequence": "RRIRRRPPRLPRPRPRPCARPRP", "shrunken log2 fold change": 0.395}, {"sequence": "RRIRERPPRLPRPRPRPDPIPRP", "shrunken log2 fold change": -0.224}, {"sequence": "RRIRGRPPRLPRPRPRPFCTPRP", "shrunken log2 fold change": 0.157}, {"sequence": "RRIRGRPPRLPRPRPRPFWNPRP", "shrunken log2 fold change": 0.087}, {"sequence": "RRIRMRPPRLPRPRPRPTEAPRP", "shrunken log2 fold change": 0.0796}, {"sequence": "RRIRVRPPRLPRPRPRPQVRPRP", "shrunken log2 fold change": 0.0179}, {"sequence": "RRIRTRPPRLPRPRPRPFNKPRP", "shrunken log2 fold change": 0.0555}, {"sequence": "RRIRKRPPRLPRPRPRPFFTPRP", "shrunken log2 fold change": 0.19}, {"sequence": "RRIRWRPPRLPRPRPRPFLFPRP", "shrunken log2 fold change": 0.095}, {"sequence": "RRIRLRPPRLPRPRPRPYPIPRP", "shrunken log2 fold change": 0.107}, {"sequence": "RRIRGRPPRLPRPRPRPVAIPRP", "shrunken log2 fold change": 0.949}, {"sequence": "RRIRSRPPRLPRPRPRPWGHPRP", "shrunken log2 fold change": 0.109}, {"sequence": "RRIRWRPPRLPRPRPRPCWAPRP", "shrunken log2 fold change": 0.197}, {"sequence": "RRIRHRPPRLPRPRPRPDHDPRP", "shrunken log2 fold change": 0.0111}, {"sequence": "RRIRFRPPRLPRPRPRPHRYPRP", "shrunken log2 fold change": -0.402}, {"sequence": "RRIRHRPPRLPRPRPRPPACPRP", "shrunken log2 fold change": 0.153}, {"sequence": "RRIRERPPRLPRPRPRPHLLPRP", "shrunken log2 fold change": 0.0196}, {"sequence": "RRIRVRPPRLPRPRPRPTRNPRP", "shrunken log2 fold change": 0.0987}, {"sequence": "RRIRVRPPRLPRPRPRPVMEPRP", "shrunken log2 fold change": -0.186}, {"sequence": "RRIRQRPPRLPRPRPRPIFTPRP", "shrunken log2 fold change": -0.123}, {"sequence": "RRIRLRPPRLPRPRPRPTGAPRP", "shrunken log2 fold change": -0.211}, {"sequence": "RRIRGRPPRLPRPRPRPKTMPRP", "shrunken log2 fold change": 0.459}, {"sequence": "RRIRKRPPRLPRPRPRPINHPRP", "shrunken log2 fold change": -0.408}, {"sequence": "RRIRQRPPRLPRPRPRPYQDPRP", "shrunken log2 fold change": 0.00682}, {"sequence": "RRIRIRPPRLPRPRPRPWPGPRP", "shrunken log2 fold change": -0.172}, {"sequence": "RRIRLRPPRLPRPRPRPFTPPRP", "shrunken log2 fold change": -0.265}, {"sequence": "RRIRLRPPRLPRPRPRPPPRPRP", "shrunken log2 fold change": 1.66}, {"sequence": "RRIRLRPPRLPRPRPRPQRWPRP", "shrunken log2 fold change": 0.236}, {"sequence": "RRIRLRPPRLPRPRPRPRAVPRP", "shrunken log2 fold change": 0.821}, {"sequence": "RRIRQRPPRLPRPRPRPAEMPRP", "shrunken log2 fold change": -0.0227}, {"sequence": "RRIRWRPPRLPRPRPRPRYPPRP", "shrunken log2 fold change": 0.175}, {"sequence": "RRIRPRPPRLPRPRPRPNQPPRP", "shrunken log2 fold change": 0.0225}, {"sequence": "RRIRQRPPRLPRPRPRPCIWPRP", "shrunken log2 fold change": -0.018}, {"sequence": "RRIRIRPPRLPRPRPRPQVGPRP", "shrunken log2 fold change": -0.094}, {"sequence": "RRIRCRPPRLPRPRPRPGQVPRP", "shrunken log2 fold change": 0.0846}, {"sequence": "RRIRHRPPRLPRPRPRPSVQPRP", "shrunken log2 fold change": -0.266}, {"sequence": "RRIRPRPPRLPRPRPRPIMYPRP", "shrunken log2 fold change": -0.175}, {"sequence": "RRIRHRPPRLPRPRPRPKDTPRP", "shrunken log2 fold change": -0.15}, {"sequence": "RRIRTRPPRLPRPRPRPTAYPRP", "shrunken log2 fold change": -0.0821}, {"sequence": "RRIRFRPPRLPRPRPRPDCWPRP", "shrunken log2 fold change": -0.0344}, {"sequence": "RRIRDRPPRLPRPRPRPDKEPRP", "shrunken log2 fold change": -0.0124}, {"sequence": "RRIRSRPPRLPRPRPRPYLVPRP", "shrunken log2 fold change": -0.123}, {"sequence": "RRIRIRPPRLPRPRPRPGQFPRP", "shrunken log2 fold change": -0.0255}, {"sequence": "RRIRLRPPRLPRPRPRPWPQPRP", "shrunken log2 fold change": 0.244}, {"sequence": "RRIRCRPPRLPRPRPRPTMSPRP", "shrunken log2 fold change": -0.139}, {"sequence": "RRIRQRPPRLPRPRPRPWWSPRP", "shrunken log2 fold change": 0.0234}, {"sequence": "RRIRQRPPRLPRPRPRPVELPRP", "shrunken log2 fold change": "4.07e-05"}, {"sequence": "RRIRTRPPRLPRPRPRPIQHPRP", "shrunken log2 fold change": -0.403}, {"sequence": "RRIRWRPPRLPRPRPRPFQLPRP", "shrunken log2 fold change": -0.316}, {"sequence": "RRIRNRPPRLPRPRPRPATDPRP", "shrunken log2 fold change": 0.14}, {"sequence": "RRIRYRPPRLPRPRPRPGVFPRP", "shrunken log2 fold change": -0.0987}, {"sequence": "RRIRWRPPRLPRPRPRPCSHPRP", "shrunken log2 fold change": -0.264}, {"sequence": "RRIRVRPPRLPRPRPRPKFRPRP", "shrunken log2 fold change": 0.0323}, {"sequence": "RRIRDRPPRLPRPRPRPVNKPRP", "shrunken log2 fold change": -0.0502}, {"sequence": "RRIRARPPRLPRPRPRPKLHPRP", "shrunken log2 fold change": 0.366}, {"sequence": "RRIRDRPPRLPRPRPRPFTYPRP", "shrunken log2 fold change": -0.0134}, {"sequence": "RRIRARPPRLPRPRPRPFYWPRP", "shrunken log2 fold change": -0.24}, {"sequence": "RRIRMRPPRLPRPRPRPEFVPRP", "shrunken log2 fold change": 0.383}, {"sequence": "RRIRVRPPRLPRPRPRPIRSPRP", "shrunken log2 fold change": -0.125}, {"sequence": "RRIRCRPPRLPRPRPRPPHMPRP", "shrunken log2 fold change": 1.56}, {"sequence": "RRIRPRPPRLPRPRPRPQATPRP", "shrunken log2 fold change": -0.2}, {"sequence": "RRIRLRPPRLPRPRPRPVKDPRP", "shrunken log2 fold change": -0.211}, {"sequence": "RRIRERPPRLPRPRPRPCCSPRP", "shrunken log2 fold change": -0.52}, {"sequence": "RRIRWRPPRLPRPRPRPMVNPRP", "shrunken log2 fold change": -0.0548}, {"sequence": "RRIRARPPRLPRPRPRPSRRPRP", "shrunken log2 fold change": 0.297}, {"sequence": "RRIRVRPPRLPRPRPRPSQIPRP", "shrunken log2 fold change": -0.206}, {"sequence": "RRIRFRPPRLPRPRPRPGAHPRP", "shrunken log2 fold change": -0.126}, {"sequence": "RRIRGRPPRLPRPRPRPVGLPRP", "shrunken log2 fold change": 0.954}, {"sequence": "RRIRNRPPRLPRPRPRPIAYPRP", "shrunken log2 fold change": -0.0604}, {"sequence": "RRIRERPPRLPRPRPRPTKPPRP", "shrunken log2 fold change": -0.394}]}]}
